# Results as given in publication PMC8064889 (Cell Reports, 2021).
# B1: 47D1 IgG (antibody, V domains shown)
# VH: QVQLVQSGAEVKKPGSSVRVSCKASGGTFSTYPISWVRQAPGQGLEWMGGIIPIFGTAKSAQKFQGRVTITADEFTSTAYMEMSSLRSEDTAMYYCAREGRRYGSGWYISTGYFDYWGQGTLVTVSS
# VL: QLVLTQPASVSGSPGQSIIVSCTGTSSDVGGYKFVSWYQQHPGKAPRVMIYDVSNRPSGVSNRFSGSKSGNTASLTISGLQADDEADYYCSSYTNSSTVVFGGGTKVTVL
# How the values were obtained:
# [1] = molecular target: Avi-tag biotinylated RBD of SARS-CoV-2 S protein (SARS-CoV-2, UniProt P0DTC2); experiment: flow cytometry on cells; details: both partners purified
# [2] = molecular target: SARS-CoV-2 RBD, His6-tagged, for biolayer interferometry (SARS-CoV-2, UniProt P0DTC2); experiment: BLI; details: both partners purified
binder,measurement,setting,value
B1,binding result,[1],binds
same,binding result,[2],binds
